Assay results: the supplement of paper PMC10567573

B1: KCNK9 (parent)
chain: DVPDLQSVCSCTCYRSQDYGGRSV
B2: INTS3 (parent)
chain: KKREFRFHPIKETVVEEPVDITPY

Variants of: B1
Experiment: protein stability index of a GFP-peptide fusion (GPS, HEK-293T) (PSI 1-6); higher = more stable
Details: c terminus: a fixed tail appended
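Also: lentivirally expressed fusions sorted by FACS into six bins by GFP to DsRed ratio, PSI derived from sequencing read proportions per bin multiplied by bin number.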

Variant	protein stability index
DVPDLQSVCSCTCYRSQDYGGRSF	1.13
DVPDLQSVISCTCYRSQDYGGRSV	2.38
DVPDLQSVCSCTTYRSQDYGGRSV	3
DVPDLQSVCSCTCYRSQDHGGRSV	2.27
DVPDLQSVCSCTIYRSQDYGGRSV	2.85
DVPDLCSVCSCTCYRSQDYGGRSV	2.56
DVPDLQSVCSCDCYRSQDYGGRSV	2.79
DVPDLQSVCSCTCYRSQDFGGRSV	2.25
DVPDLQSVCSQTCYRSQDYGGRSV	2.59
DVPDLQSVCSCTCYFSQDYGGRSV	1.78
DVPDLQSVCSCTCYRSQDKGGRSV	2.1
DVPDLQAVCSCTCYRSQDYGGRSV	1.64
DVPDLQSVCSCTCYRSQDYCGRSV	2.26
DVPDLQSVCSCTCYRSQDYGGRVV	1.32
DVPDLQSVCSCTCYRSCDYGGRSV	2.31
DVPDLLSVCSCTCYRSQDYGGRSV	3.01

Variant	protein stability index
DVPDLQSVCSLTCYRSQDYGGRSV	2.52
DVPDLQSVCSHTCYRSQDYGGRSV	2.02
DVPDLQSVCSCTCYRSQDYYGRSV	2.8
DVPDLQSVCSCTCYRSQDEGGRSV	2.02
DVPDLQSVCSMTCYRSQDYGGRSV	2.13
RVPDLQSVCSCTCYRSQDYGGRSV	1.62
DVPDLQSVCSCTCYRSQDYGGRSN	2.5
DVPDLQSVCSCLCYRSQDYGGRSV	1.3
DVPDLQSVTSCTCYRSQDYGGRSV	1.89
DVPDLQSVHSCTCYRSQDYGGRSV	1.71
DVPDLQSVCSCTCYRSQDVGGRSV	1.66
DVPDLQSVCSCTCYRSQDYGGRSP	2.35
NVPDLQSVCSCTCYRSQDYGGRSV	1.29
DVPDLQSVCSCTCYRSQDYGGRGV	2.96
DVPDLQSVCSCTCYRSQDYGPRSV	2.06
DTPDLQSVCSCTCYRSQDYGGRSV	2.57

Variants of: B2
Experiment: as above
Details: c terminus: a fixed tail appended

Variant	protein stability index
KKREFFFHPIKETVVEEPVDITPY	2.57
KKREFRFHPIKLTVVEEPVDITPY	3.92
KKREFRFHPIKHTVVEEPVDITPY	2.17
KKREFHFHPIKETVVEEPVDITPY	4.52
AKREFRFHPIKETVVEEPVDITPY	2.29
KKREFRFHPIKETVVEEPVDITHY	1.74
KKREFRFHPIKETVVEEPVDWTPY	2.1
KKREFRYHPIKETVVEEPVDITPY	2.84
KKREFRFEPIKETVVEEPVDITPY	3.55
KKREFRFHPIKETVVEEEVDITPY	2.05
KKREFRFHPIKETVVEENVDITPY	2.26
KKRENRFHPIKETVVEEPVDITPY	4.53
KKREFRFHPIKETVVECPVDITPY	1.97
KKREFRFHPIKETVDEEPVDITPY	2.35
KKREFRFHPIEETVVEEPVDITPY	2.5
KKREFRFHPIKETVVEEPVDITTY	1.46
KKREFRFHPIKERVVEEPVDITPY	1.79
KKREFRFHPIKETVTEEPVDITPY	1.75
KKREFRFPPIKETVVEEPVDITPY	4.58
KKREFRFHMIKETVVEEPVDITPY	2.17
KKREFRFHPIKETIVEEPVDITPY	1.91

Variant	protein stability index
KKREFRFHPIKETVVEEPPDITPY	2.06
KKREFRFHPIKETMVEEPVDITPY	2.19
KKREFRFHPIKETVVEEPMDITPY	2.23
KKREFRFHPIKEFVVEEPVDITPY	1.54
GKREFRFHPIKETVVEEPVDITPY	1.69
KKREFRFHPIKETVVEEPVDITPG	2.44
KKREFRFWPIKETVVEEPVDITPY	3.41
KKREFRFHPIKETVVEEPVDITAY	1.66
KKREFRFHPIKETVVCEPVDITPY	2.46
KKREFRFHPIKETVVEWPVDITPY	2.46
TKREFRFHPIKETVVEEPVDITPY	2.01
KKREFRFHPIKETVEEEPVDITPY	2.41
KKHEFRFHPIKETVVEEPVDITPY	2.14
KKREFRFHPILETVVEEPVDITPY	2.72
KKREFRFNPIKETVVEEPVDITPY	3.96
KKREFRFHPIKETVVEEPTDITPY	1.88
KKREFRFHPIKETVVEEPVRITPY	2.22
KPREFRFHPIKETVVEEPVDITPY	2.5
KKREFRFHSIKETVVEEPVDITPY	2.04
KKREFRFHPIKETVVEVPVDITPY	2.02
KKREFEFHPIKETVVEEPVDITPY	4.48

Variant	protein stability index
KKREFRFHPIKETVVEEPVDITPI	2.33
KKREFRFHPIKETVVEEPVCITPY	1.61
KKREVRFHPIKETVVEEPVDITPY	4.63
KIREFRFHPIKETVVEEPVDITPY	2.55
KKREFRFHPQKETVVEEPVDITPY	1.83
KKREHRFHPIKETVVEEPVDITPY	4.36
KKREFRFHPIKETVVEEPVDITPT	2.24
KYREFRFHPIKETVVEEPVDITPY	1.6
KKREFRFHPIKETVVEEPVDIAPY	1.45
KKREFRFHPWKETVVEEPVDITPY	3.25
FKREFRFHPIKETVVEEPVDITPY	2.04
KKREFRFHPIKETVVEEPVPITPY	1.79
KKRDFRFHPIKETVVEEPVDITPY	2.06
KKREFSFHPIKETVVEEPVDITPY	4.31
KKREFRFHPIKETVIEEPVDITPY	1.67
KWREFRFHPIKETVVEEPVDITPY	2.03
KKRAFRFHPIKETVVEEPVDITPY	2.29
KKREFRFIPIKETVVEEPVDITPY	2.8
KDREFRFHPIKETVVEEPVDITPY	2.53
KKREFRFHPIKETVVEEPVDQTPY	2.43
